From IntAct's records for PubMed 10918185

B1: Tumor necrosis factor receptor superfamily member 6 (Homo sapiens), P25445 (parent)
chain: MLGIWTLLPLVLTSVARLSSKSVNAQVTDINSKGLELRKTVTTVETQNLEGLHHDGQFCHKPCPPGERKARDCTVNGDEPDCVPCQEGKEYTDKAHFSSKCRRCRLCDEGHGLEVEINCTRTQNTKCRCKPNFFCNSTVCEHCDPCTKCEHGIIKECTLTSNTKCKEEGSRSNLGWLCLLLLPIPLIVWVKRKEVQKTCRKHRKENQGSHESPTLNPETVAINLSDVDLSKYITTIAGVMTLSQVKGFVRKNGVNEAKIDEIKNDNVQDTAEQKVQLLRNWHQLHGKKEAYDTLIKDLKKANLCTLAEKIQTIILKDITSDSENSNFRNEIQSLV

Variants of: B1
Conditions: with ptn13_human PTPN13, Q12923
ptn13_human PTPN13, Q12923, sequence (Q12923 whole entry): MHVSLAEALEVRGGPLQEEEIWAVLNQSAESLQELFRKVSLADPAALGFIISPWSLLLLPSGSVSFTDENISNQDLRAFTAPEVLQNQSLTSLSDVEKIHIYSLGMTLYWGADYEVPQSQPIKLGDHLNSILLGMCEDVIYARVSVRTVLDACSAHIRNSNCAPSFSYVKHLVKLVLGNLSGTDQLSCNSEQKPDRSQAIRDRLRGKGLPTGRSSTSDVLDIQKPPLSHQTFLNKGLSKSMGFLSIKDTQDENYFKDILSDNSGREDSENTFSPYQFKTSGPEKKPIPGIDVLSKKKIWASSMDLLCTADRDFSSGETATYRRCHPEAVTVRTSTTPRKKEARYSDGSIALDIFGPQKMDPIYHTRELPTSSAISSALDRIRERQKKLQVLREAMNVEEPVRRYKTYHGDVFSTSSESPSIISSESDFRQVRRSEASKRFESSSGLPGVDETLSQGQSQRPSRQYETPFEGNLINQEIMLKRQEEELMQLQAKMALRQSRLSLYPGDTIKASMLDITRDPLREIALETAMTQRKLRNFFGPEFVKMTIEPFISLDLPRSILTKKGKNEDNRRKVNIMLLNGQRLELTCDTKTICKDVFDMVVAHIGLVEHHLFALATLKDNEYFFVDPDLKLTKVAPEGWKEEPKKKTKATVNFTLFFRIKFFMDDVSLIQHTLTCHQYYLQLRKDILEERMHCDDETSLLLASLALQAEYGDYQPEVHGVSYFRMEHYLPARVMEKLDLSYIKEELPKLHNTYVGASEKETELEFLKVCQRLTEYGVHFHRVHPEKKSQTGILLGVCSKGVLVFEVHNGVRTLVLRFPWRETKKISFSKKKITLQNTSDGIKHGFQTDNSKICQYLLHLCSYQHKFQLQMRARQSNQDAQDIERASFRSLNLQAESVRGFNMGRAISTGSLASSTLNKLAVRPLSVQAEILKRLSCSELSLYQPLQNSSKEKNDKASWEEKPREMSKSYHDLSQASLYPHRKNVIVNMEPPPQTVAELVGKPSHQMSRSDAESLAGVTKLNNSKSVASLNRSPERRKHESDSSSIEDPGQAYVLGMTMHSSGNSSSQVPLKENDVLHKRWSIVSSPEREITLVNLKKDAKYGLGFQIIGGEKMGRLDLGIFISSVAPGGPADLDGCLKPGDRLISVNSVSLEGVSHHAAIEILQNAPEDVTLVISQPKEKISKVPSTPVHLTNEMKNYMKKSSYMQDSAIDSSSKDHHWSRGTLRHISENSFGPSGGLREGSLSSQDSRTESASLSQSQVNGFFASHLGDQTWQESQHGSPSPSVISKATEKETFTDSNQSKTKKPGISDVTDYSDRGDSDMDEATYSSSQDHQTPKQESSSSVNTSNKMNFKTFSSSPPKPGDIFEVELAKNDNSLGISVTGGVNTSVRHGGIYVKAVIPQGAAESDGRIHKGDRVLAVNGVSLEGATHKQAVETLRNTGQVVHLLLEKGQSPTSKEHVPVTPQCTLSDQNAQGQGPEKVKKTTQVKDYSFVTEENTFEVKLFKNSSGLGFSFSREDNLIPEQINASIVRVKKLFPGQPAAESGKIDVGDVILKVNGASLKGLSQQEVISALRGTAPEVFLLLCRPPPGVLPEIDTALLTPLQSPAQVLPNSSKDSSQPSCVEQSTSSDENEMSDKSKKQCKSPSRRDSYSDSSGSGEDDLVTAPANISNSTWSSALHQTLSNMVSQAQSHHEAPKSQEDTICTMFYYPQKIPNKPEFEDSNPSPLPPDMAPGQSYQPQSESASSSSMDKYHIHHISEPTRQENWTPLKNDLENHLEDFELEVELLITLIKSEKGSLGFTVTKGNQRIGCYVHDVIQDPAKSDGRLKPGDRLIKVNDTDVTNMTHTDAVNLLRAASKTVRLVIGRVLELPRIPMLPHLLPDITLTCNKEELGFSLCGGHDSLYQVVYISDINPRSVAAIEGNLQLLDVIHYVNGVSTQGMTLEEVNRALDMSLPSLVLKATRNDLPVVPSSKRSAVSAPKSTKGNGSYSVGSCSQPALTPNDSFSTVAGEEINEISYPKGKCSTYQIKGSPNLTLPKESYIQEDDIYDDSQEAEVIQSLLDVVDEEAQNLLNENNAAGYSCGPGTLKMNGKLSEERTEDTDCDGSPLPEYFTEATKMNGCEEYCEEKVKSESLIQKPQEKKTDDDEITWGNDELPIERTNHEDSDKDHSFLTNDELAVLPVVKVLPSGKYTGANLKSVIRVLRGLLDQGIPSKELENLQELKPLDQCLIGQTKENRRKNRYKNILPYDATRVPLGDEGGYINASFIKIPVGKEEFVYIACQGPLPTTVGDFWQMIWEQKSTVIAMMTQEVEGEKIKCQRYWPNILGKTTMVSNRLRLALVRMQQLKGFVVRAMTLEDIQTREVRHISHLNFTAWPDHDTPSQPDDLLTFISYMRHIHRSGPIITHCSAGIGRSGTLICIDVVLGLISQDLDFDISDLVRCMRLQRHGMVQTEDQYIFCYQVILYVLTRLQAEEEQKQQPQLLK

effect of a mutation on the interaction	Variant
decreasing interaction	MLGIWTLLPLVLTSVARLSSKSVNAQVTDINSKGLELRKTVTTVETQNLEGLHHDGQFCHKPCPPGERKARDCTVNGDEPDCVPCQEGKEYTDKAHFSSKCRRCRLCDEGHGLEVEINCTRTQNTKCRCKPNFFCNSTVCEHCDPCTKCEHGIIKECTLTSNTKCKEEGSRSNLGWLCLLLLPIPLIVWVKRKEVQKTCRKHRKENQGSHESPTLNPETVAINLSDVDLSKYITTIAGVMTLSQVKGFVRKNGVNEAKIDEIKNDNVQDTAEQKVQLLRNWHQLHGKKEAYDTLIKDLKKANLCTLAEKIQTIILKDITSDSENSNFRNEIQPLV [S333P]
